According to US20230348564A1, “ANTI-CANCER PROTEINS” (UNICHEM LABORATORIES LTD, priority 2020, published 2023):

Key:
[1] = tested on: SK-Mel-28 (Human melanoma); assay: Calcein AM cytotoxicity assay; details: 48h
Procedure: (§1) All the cancer cell lines were procured from National Centre for Cell Science, Pune (India). The cell lines were maintained under conditions as described in Table 21 below. The cell lines were sub-cultured by trypsinization followed by splitting the cell suspension into fresh flasks and supplementing with fresh culture medium.
(§2) All the cell lines were grown in specified media at 37° C. with 95% Humidity and […].
(§3) The cells were trypsinized, counted by Trypan blue method in Neuebauer's Chamber and plated in wells of flat bottom 96-well plate (dark walled plate, flat bottom) at the density corresponding to 10×10^3 cells/well/180 μl medium.
(§4) Following overnight incubation, the cells were treated with test item (20 μL) at concentrations ranging from 2.5-80 μg/mL, so that the total volume in each well is 200 μL.
(§5) The cells were incubated with the test items or positive control for a time period of 48h. Following incubation, the cell cytotoxicity was estimated using Calcein AM Cell Viability Assay Kit from R&D systems (Cat No. 4892-010-K).
(§6) Fluorescence was measured at 485 nm (excitation/528 run (emission) spectra using Synergy HT micro plate reader.
(§7) Percentage cytotoxicity wrt untreated cells was calculated using formula:
(§8) Cytotoxicity=[(RFUuntreated−RFUsample)/RFUuntreated]*100
(§9) RFU: relative fluorescence units
(§10) IC50 value was calculated using Graph-Pad Prism version 4.01 software.

[2] = tested on: HT-29 (Human Colorectal adenocarcinoma); assay: Calcein AM cytotoxicity assay; details: 48h
Procedure: as §1, §2, §3, §4, §5, §6, §7, §8, §9, §10

[3] = tested on: ZR-75-1 (Human ductal carcinoma); assay: Calcein AM cytotoxicity assay; details: 48h
Procedure: as §1, §2, §3, §4, §5, §6, §7, §8, §9, §10

[4] = tested on: Human Primary mammary epithelial (HMEC) cells; assay: Calcein AM cytotoxicity assay; details: 48h
Procedure: as §1, §2, §3, §4, §5, §6, §7, §8, §9, §10

[5] = tested on: PC-3 (Human Prostate Cancer); assay: Calcein AM cytotoxicity assay; details: 48h
Procedure: as §1, §2, §3, §4, §5, §6, §7, §8, §9, §10

[6] = tested on: SKOV-3 (Human Ovary adenocarcinoma); assay: Calcein AM cytotoxicity assay; details: 48h
Procedure: as §1, §2, §3, §4, §5, §6, §7, §8, §9, §10

[7] = tested on: A549 (Human lung carcinoma); assay: Calcein AM cytotoxicity assay; details: 48h
Procedure: as §1, §2, §3, §4, §5, §6, §7, §8, §9, §10

[8] = tested on: SW620 (Human Colorectal adenocarcinoma); assay: Calcein AM cytotoxicity assay; details: 48h
Procedure: as §1, §2, §3, §4, §5, §6, §7, §8, §9, §10

[9] = tested on: VEGF release in PANC-1 cells; assay: VEGF secretion in cancer cells (Human VEGF ELISA); assay type: cell-based; details: 24 h
Procedure: (§11) The cell lines were maintained in DMEM+10% […] (heat inactivated) at 37° C. with 5% CO2, and 95% humidity. Cells were counted and plated in 6-well plates for 24 h at a density of 0.5×10^6 cells/well. The cells were incubated overnight under growth conditions as described above so as to allow cell recovery and exponential growth. Cells were treated with each test item at different concentrations for 24h in serum free media. Doxorubicin was used as positive control. Secreted levels of VEGF were determined in supernatants after 24 hours using Human VEGF ELISA kit (R&D systems) as per manufacturer's protocol. Change in VEGF levels corresponding to each treatment was calculated using the following formula: […]

[10] = tested on: VEGF release in MDA-MB-231 cells; assay: VEGF secretion in cancer cells (Human VEGF ELISA); assay type: cell-based; details: 24 h
Procedure: as §11

B1: SEQ ID NO. 2: recombinant lectin; variant of the S. rolfsii lectin amino acid sequence (reported as Rec-2 in WO 2010/095143) (protein)
chain: TYKITVRVYQTNPDAFFHPVEKTVWKYANGGTWTITDDQHVLTMGGSGTSGTLRFHADNGESFTATFGVHNYKRWCDIVTNLAADETGMVINQQYYSQKNREEARERQLSNYQVKNAKGRNFQIVYTEAEGNDLHANLIIG
modifications: In vitro synthesis
In the case of B1, the IC50 [1] is reported as greater than 80 µg/mL, the IC50 [2] is reported as 42.0 µg/mL and the IC50 [3] is reported as greater than 80 µg/mL. It also gave an IC50 [4] greater than 80 µg/mL, an IC50 [5] greater than 80 µg/mL and an IC50 [6] greater than 80 µg/mL. For the same molecule, the IC50 [7] was greater than 80 µg/mL, the IC50 [8] was greater than 80 µg/mL and the “Average absorbance at 450 nM” value ([9]; 2.5 μg/mL) was 1.717. The “Percentage decrease in VEGF levels” value ([9]; 2.5 μg/mL) was −5.5%, the “VEGF level” value ([9]; 2.5 μg/mL) was 1077.5 pg/mL and the “Average absorbance at 450 nM” value ([9]; 5 μg/mL) was 1.821. For the same molecule, the “Percentage decrease in VEGF levels” value ([9]; 5 μg/mL) was −12.3%, the “VEGF level” value ([9]; 5 μg/mL) was 1146.8 pg/mL and the “Average absorbance at 450 nM” value ([9]; 10 μg/mL) was 2.085. For the same molecule, the “Percentage decrease in VEGF levels” value ([9]; 10 μg/mL) was −29.5%, the “VEGF level” value ([9]; 10 μg/mL) was 1322.6 pg/mL and the “Average absorbance at 450 nM” value ([9]; 20 μg/mL) was 2.202. For the same molecule, the “Percentage decrease in VEGF levels” value ([9]; 20 μg/mL) was −37.2%, the “VEGF level” value ([9]; 20 μg/mL) was 1400.6 pg/mL and the “Average absorbance at 450 nM” value ([9]; 80 μg/mL) was 2.006. The “Percentage decrease in VEGF levels” value ([9]; 80 μg/mL) was −24.4%, the “VEGF level” value ([9]; 80 μg/mL) was 1269.9 pg/mL and the “Average absorbance at 450 nM” value ([10]; 2.5 μg/mL) was 0.970. For the same molecule, the “Percentage decrease in VEGF levels” value ([10]; 2.5 μg/mL) was −25.0%, the “VEGF level” value ([10]; 2.5 μg/mL) was 579.3 pg/mL and the “Average absorbance at 450 nM” value ([10]; 5 μg/mL) was 0.763. For the same molecule, the “Percentage decrease in VEGF levels” value ([10]; 5 μg/mL) was 4.8%, the “VEGF level” value ([10]; 5 μg/mL) was 441.0 pg/mL and the “Average absorbance at 450 nM” value ([10]; 10 μg/mL) was 1.072. For the same molecule, the “Percentage decrease in VEGF levels” value ([10]; 10 μg/mL) was −39.8%, the “VEGF level” value ([10]; 10 μg/mL) was 647.5 pg/mL and the “Average absorbance at 450 nM” value ([10]; 20 μg/mL) was 1.552. For the same molecule, the “Percentage decrease in VEGF levels” value ([10]; 20 μg/mL) was −108.8%, the “VEGF level” value ([10]; 20 μg/mL) was 967.3 pg/mL and the “Average absorbance at 450 nM” value ([10]; 80 μg/mL) was 2.222. The “Percentage decrease in VEGF levels” value ([10]; 80 μg/mL) was −205.2% and the “VEGF level” value ([10]; 80 μg/mL) was 1413.9 pg/mL.
